Literature values in patent publication US20250282866A1, “TREATMENT OF DISEASES RELATED TO ATP-BINDING CASSETTE TRANSPORTER 1 DYSFUNCTION USING TREM2 AGONISTS” (VIGIL NEUROSCIENCE, INC., priority 2020, published 2025).
Positions count from the first letter of the chain named. In names and notes the source's numbering stands. Marks after values point to notes of the source that are not given here.

T1: human TREM2 (Homo sapiens, UniProt Q9NZC2)
T1 sequence (Q9NZC2 19-230): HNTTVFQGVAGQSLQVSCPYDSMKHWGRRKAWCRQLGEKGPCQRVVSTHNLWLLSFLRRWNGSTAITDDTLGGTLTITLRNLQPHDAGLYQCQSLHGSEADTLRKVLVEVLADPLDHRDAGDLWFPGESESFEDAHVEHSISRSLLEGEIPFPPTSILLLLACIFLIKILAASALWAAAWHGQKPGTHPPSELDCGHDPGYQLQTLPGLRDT

B1: V90: 6E7 variant: VH Y32E; VL S31R (antibody, V domains shown)
VH: EVQLVQSGAEVKKPGESLKISCKGSGYSFTSEWIAWVRQMPGKGLEWMGIIYPGDSDTRYSPSFQGQVTISADKSISTAYLQWSSLKASDTAMYFCARQRTFYYDSSDYFDYWGQGTLVTVSS
VL: DIQMTQSPSSVSASVGDRVTITCRASQGISRWLAWYQQKPGKAPKLLIYAASSLQNGVPSRFSGSGSGTDFTLTISSLQPEDFATYFCQQADSFPRTFGQGTKLEIK
B2: V85: 6E7 variant: VH T30R, I50T, Q99S; VL L54R (antibody, V domains shown)
VH: B1 VH with T30R, E32Y, I50T, Q99S
VL: B1 VL with R31S, L54R
B3: V16: 6E7 variant: VH F29M, S56G, Q99S; VL S53N (antibody, V domains shown)
VH: B1 VH with F29M, E32Y, S56G, Q99S
VL: B1 VL with R31S, S53N
B4: V88: 6E7 variant: VH T30G; VL S53R, N56R, F94S (antibody, V domains shown)
VH: B1 VH with T30G, E32Y
VL: B1 VL with R31S, S53R, N56R, F94S
B5: V37: 6E7 variant: VH F29H, Q65A, Q99S; VL N56W, F94Y (antibody, V domains shown)
VH: B1 VH with F29H, E32Y, Q65A, Q99S
VL: B1 VL with R31S, N56W, F94Y
B6: V87: 6E7 variant: VH T30R, T58V, S63D, Q99S; VL N56W (antibody, V domains shown)
VH: B1 VH with T30R, E32Y, T58V, S63D, Q99S
VL: B1 VL with R31S, N56W
B7: V36: 6E7 variant: VH I34L, Q99S; VL L54R, F94Y (antibody, V domains shown)
VH: B1 VH with E32Y, I34L, Q99S
VL: B1 VL with R31S, L54R, F94Y
B8: V26: 6E7 variant: VH A35G, I50T, F102M, Y112A; VL N56R, F94Y (antibody, V domains shown)
VH: B1 VH with E32Y, A35G, I50T, F102M, Y112A
VL: B1 VL with R31S, N56R, F94Y
B9: V14: 6E7 variant: VH T30G, S56Q, Q99G; VL S53R (antibody, V domains shown)
VH: B1 VH with T30G, E32Y, S56Q, Q99G
VL: B1 VL with R31S, S53R
B10: V38: 6E7 variant: VH T30G, T58V; VL L54R, F94H (antibody, V domains shown)
VH: B1 VH with T30G, E32Y, T58V
VL: B1 VL with R31S, L54R, F94H
B11: V17: 6E7 variant: VH T30G, Q99S; VL L54R, F94S (antibody, V domains shown)
VH: B1 VH with T30G, E32Y, Q99S
VL: B1 VL with R31S, L54R, F94S
B12: V39: 6E7 variant: VH T30G, S61N, Q99G; VL Q55V, F94S (antibody, V domains shown)
VH: B1 VH with T30G, E32Y, S61N, Q99G
VL: B1 VL with R31S, Q55V, F94S
B13: V15: 6E7 variant: VH T30A, I50T, Q99S; VL S53W, F94Y (antibody, V domains shown)
VH: B1 VH with T30A, E32Y, I50T, Q99S
VL: B1 VL with R31S, S53W, F94Y
B14: V24: 6E7 variant: VH T58V, Q99S; VL N56K, R96H (antibody, V domains shown)
VH: B1 VH with E32Y, T58V, Q99S
VL: B1 VL with R31S, N56K, R96H
B15: V86: 6E7 variant: VH T30G, I34L, Q65E, Q99S; VL L54R (antibody, V domains shown)
VH: B1 VH with T30G, E32Y, I34L, Q65E, Q99S
VL: B1 VL with R31S, L54R
B16: V27: 6E7 variant: VH S61A, Q99S; VL N56R (antibody, V domains shown)
VH: B1 VH with E32Y, S61A, A97V, Q99S
VL: B1 VL with R31S, N56R
B17: V28: 6E7 variant: VH T30Q, I50T, Y103F; VL N56S, F94L (antibody, V domains shown)
VH: B1 VH with T30Q, E32Y, I50T, Y103F
VL: B1 VL with R31S, N56S, F94L
B18: V25: 6E7 variant: VH T30G, I50L, Q99S; VL Q55A, F94M (antibody, V domains shown)
VH: B1 VH with T30G, E32Y, I50L, Q99S
VL: B1 VL with R31S, Q55A, F94M
B19: V13: 6E7 variant: VH T30G, P62A, Q99G; VL N56G, F94M (antibody, V domains shown)
VH: B1 VH with T30G, E32Y, P62A, Q99G
VL: B1 VL with R31S, N56G, F94M

Target: T1, human TREM2
Conditions: 1st screen; values printed with asterisk; concentration 110 nM or 10 nM (footnote a not given)

| Molecule | Binding Signal (fold over 6E7 Parental antibody) 1st screen 110 nM or 10 nM |
| --- | --- |
| B1 | 0.33* fold over 6E7 Parental antibod |

Same assay, conditions: 1st screen; values printed without asterisk; concentration 110 nM or 10 nM (footnote a not given)

| Molecule | Binding Signal (fold over 6E7 Parental antibody) 1st screen 110 nM or 10 nM |
| --- | --- |
| B2 | 5.41 fold over 6E7 Parental antibod |
| B3 | 4.01 fold over 6E7 Parental antibod |
| B4 | 4.92 fold over 6E7 Parental antibod |
| B5 | 3.46 fold over 6E7 Parental antibod |
| B6 | 3.84 fold over 6E7 Parental antibod |
| B7 | 3.38 fold over 6E7 Parental antibod |
| B8 | 3.57 fold over 6E7 Parental antibod |
| B9 | 4.71 fold over 6E7 Parental antibod |
| B10 | 4.34 fold over 6E7 Parental antibod |
| B11 | 5.37 fold over 6E7 Parental antibod |
| B12 | 6.15 fold over 6E7 Parental antibod |
| B13 | 5.23 fold over 6E7 Parental antibod |
| B14 | 2.64 fold over 6E7 Parental antibod |
| B15 | 4.80 fold over 6E7 Parental antibod |
| B16 | 5.50 fold over 6E7 Parental antibod |
| B17 | 3.08 fold over 6E7 Parental antibod |
| B18 | 4.23 fold over 6E7 Parental antibod |
| B19 | 1.31 fold over 6E7 Parental antibod |

Same assay, conditions: 2nd screen, 2 nM

| Molecule | Binding Signal (fold over 6E7 Parental antibody) 2nd screen 2 nM |
| --- | --- |
| B2 | 5.41 fold over 6E7 Parental antibod |
| B3 | 3.57 fold over 6E7 Parental antibod |
| B4 | 5.57 fold over 6E7 Parental antibod |
| B5 | 3.69 fold over 6E7 Parental antibod |
| B6 | 4.86 fold over 6E7 Parental antibod |
| B7 | 4.00 fold over 6E7 Parental antibod |
| B8 | 2.83 fold over 6E7 Parental antibod |
| B9 | 2.57 fold over 6E7 Parental antibod |
| B10 | 3.44 fold over 6E7 Parental antibod |
| B11 | 4.22 fold over 6E7 Parental antibod |
| B12 | 5.11 fold over 6E7 Parental antibod |
| B13 | 4.72 fold over 6E7 Parental antibod |
| B14 | 1.42 fold over 6E7 Parental antibod |
| B15 | 5.17 fold over 6E7 Parental antibod |
| B16 | 5.67 fold over 6E7 Parental antibod |
| B17 | 2.63 fold over 6E7 Parental antibod |
| B18 | 3.15 fold over 6E7 Parental antibod |
| B19 | 1.15 fold over 6E7 Parental antibod |

Same assay, conditions: 2nd screen, 10 nM

| Molecule | Binding Signal (fold over 6E7 Parental antibody) 2nd screen 10 nM |
| --- | --- |
| B2 | 5.37 fold over 6E7 Parental antibod |
| B3 | 4.04 fold over 6E7 Parental antibod |
| B4 | 5.30 fold over 6E7 Parental antibod |
| B5 | 3.49 fold over 6E7 Parental antibod |
| B6 | 3.93 fold over 6E7 Parental antibod |
| B7 | 3.44 fold over 6E7 Parental antibod |
| B8 | 3.47 fold over 6E7 Parental antibod |
| B9 | 4.64 fold over 6E7 Parental antibod |
| B10 | 4.36 fold over 6E7 Parental antibod |
| B11 | 5.51 fold over 6E7 Parental antibod |
| B12 | 5.81 fold over 6E7 Parental antibod |
| B13 | 4.78 fold over 6E7 Parental antibod |
| B14 | 2.90 fold over 6E7 Parental antibod |
| B15 | 5.02 fold over 6E7 Parental antibod |
| B16 | 5.69 fold over 6E7 Parental antibod |
| B17 | 3.61 fold over 6E7 Parental antibod |
| B18 | 4.70 fold over 6E7 Parental antibod |
| B19 | 1.35 fold over 6E7 Parental antibod |

Same assay, conditions: 2nd screen, 100 nM

| Molecule | Binding Signal (fold over 6E7 Parental antibody) 2nd screen 100 nM |
| --- | --- |
| B1 | 0.36 fold over 6E7 Parental antibod |
